In the supplement of paper PMC9112550, “Optimization of the antimicrobial peptide Bac7 by deep mutational scanning” (BMC Biology, 2022):

system: Escherichia coli TOP10; experiment: shrunken log2 fold change of peptide-encoding DNA abundance (4.5 h post-induction vs induction); higher = less antimicrobial activity (less host growth inhibition); conditions: time post-induction: 4.5 h; library: site-saturation at positions 5, 18, 19, 20
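Note: peptides expressed intracellularly from a pBAD plasmid library in pooled LB shake-flask culture, induced with 0.3% L-arabinose, DNA abundance read by NGS, three biological replicates, DESeq2 with apeglm shrinkage.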

Going from RRIRERPPRLPRPRPRPNEYPRP to RRIRPRPPRLPRPRPRPICEPRP, the “shrunken log2 fold change” value rises from -0.726 to 0.227.

RRIRRRPPRLPRPRPRPVTHPRP and RRIRDRPPRLPRPRPRPKLHPRP are within 0.2 log units of each other in “shrunken log2 fold change” value: 0.598 for the first, 0.464 for the second.

RRIRARPPRLPRPRPRPSEIPRP and RRIRKRPPRLPRPRPRPWYRPRP are within 0.2 log units of each other in “shrunken log2 fold change” value: -0.00993 for the first, 0.0232 for the second.

Going from RRIRQRPPRLPRPRPRPETFPRP to RRIRIRPPRLPRPRPRPQWCPRP, the “shrunken log2 fold change” value rises from -0.0643 to 0.307.

RRIRTRPPRLPRPRPRPWYEPRP and RRIRKRPPRLPRPRPRPWFPPRP are within 0.2 log units of each other in “shrunken log2 fold change” value: -0.145 for the first, -0.0488 for the second.

Going from RRIRRRPPRLPRPRPRPFVNPRP to RRIRIRPPRLPRPRPRPSCPPRP, the “shrunken log2 fold change” value falls from -0.049 to -0.776.

Compared with RRIRVRPPRLPRPRPRPMHMPRP, RRIRSRPPRLPRPRPRPYVCPRP is lower in “shrunken log2 fold change” value: -0.164 for the first, -0.414 for the second.

Going from RRIRGRPPRLPRPRPRPTCPPRP to RRIRYRPPRLPRPRPRPFYDPRP, the “shrunken log2 fold change” value falls from 0.419 to -0.708.

Going from RRIRWRPPRLPRPRPRPNFAPRP to RRIRERPPRLPRPRPRPTIYPRP, the “shrunken log2 fold change” value falls from 0.29 to 0.00607.

Compared with RRIRERPPRLPRPRPRPVRDPRP, RRIRFRPPRLPRPRPRPGMSPRP is lower in “shrunken log2 fold change” value: 0.337 for the first, 0.0155 for the second.

RRIRMRPPRLPRPRPRPNKTPRP and RRIRPRPPRLPRPRPRPQEYPRP are within 0.2 log units of each other in “shrunken log2 fold change” value: -0.0156 for the first, -0.151 for the second.

RRIRHRPPRLPRPRPRPTVWPRP and RRIRKRPPRLPRPRPRPSYDPRP are within 0.2 log units of each other in “shrunken log2 fold change” value: 0.123 for the first, 0.0212 for the second.

Going from RRIRPRPPRLPRPRPRPVYFPRP to RRIRQRPPRLPRPRPRPIFNPRP, the “shrunken log2 fold change” value rises from -0.671 to -0.365.

RRIRGRPPRLPRPRPRPIKQPRP and RRIRKRPPRLPRPRPRPTVIPRP are within 0.2 log units of each other in “shrunken log2 fold change” value: -0.0183 for the first, -0.15 for the second.

Compared with RRIRRRPPRLPRPRPRPGEGPRP, RRIRIRPPRLPRPRPRPEIMPRP is lower in “shrunken log2 fold change” value: 0.747 for the first, -0.183 for the second.

Going from RRIRNRPPRLPRPRPRPIVFPRP to RRIRERPPRLPRPRPRPAWFPRP, the “shrunken log2 fold change” value rises from -0.207 to 0.187.

RRIRFRPPRLPRPRPRPFPGPRP and RRIRMRPPRLPRPRPRPFRDPRP are within 0.2 log units of each other in “shrunken log2 fold change” value: -0.00776 for the first, 0.00601 for the second.

RRIRTRPPRLPRPRPRPWAQPRP and RRIRHRPPRLPRPRPRPERKPRP are within 0.2 log units of each other in “shrunken log2 fold change” value: 0.0456 for the first, 0.0547 for the second.

Compared with RRIRGRPPRLPRPRPRPQTMPRP, RRIRLRPPRLPRPRPRPGSRPRP is lower in “shrunken log2 fold change” value: 0.672 for the first, -0.183 for the second.

Compared with RRIRMRPPRLPRPRPRPMMLPRP, RRIRGRPPRLPRPRPRPGFVPRP is higher in “shrunken log2 fold change” value: -0.15 for the first, 0.768 for the second.

RRIRARPPRLPRPRPRPCTSPRP and RRIRLRPPRLPRPRPRPRISPRP are within 0.2 log units of each other in “shrunken log2 fold change” value: 0.0117 for the first, 0.0807 for the second.

RRIRSRPPRLPRPRPRPLEFPRP and RRIRFRPPRLPRPRPRPEYYPRP are within 0.2 log units of each other in “shrunken log2 fold change” value: -0.195 for the first, -0.0413 for the second.

First: RRIRNRPPRLPRPRPRPWRGPRP
Second: RRIRERPPRLPRPRPRPLNWPRP
The “shrunken log2 fold change” value of the first is higher: 0.226 for the first, -0.373 for the second.

RRIRARPPRLPRPRPRPTVIPRP and RRIRIRPPRLPRPRPRPAWMPRP are within 0.2 log units of each other in “shrunken log2 fold change” value: 0.0535 for the first, 0.0797 for the second.

Going from RRIRKRPPRLPRPRPRPVFIPRP to RRIRERPPRLPRPRPRPTTMPRP, the “shrunken log2 fold change” value falls from -0.0138 to -0.364.

Compared with RRIRERPPRLPRPRPRPPRSPRP, RRIRTRPPRLPRPRPRPQYMPRP is lower in “shrunken log2 fold change” value: 0.375 for the first, -1.01 for the second.

Going from RRIRFRPPRLPRPRPRPICSPRP to RRIRGRPPRLPRPRPRPLILPRP, the “shrunken log2 fold change” value rises from -0.0437 to 0.203.

RRIRNRPPRLPRPRPRPQCYPRP and RRIRQRPPRLPRPRPRPRFYPRP are within 0.2 log units of each other in “shrunken log2 fold change” value: -0.136 for the first, -0.206 for the second.

Compared with RRIRGRPPRLPRPRPRPYNAPRP, RRIRPRPPRLPRPRPRPKSVPRP is higher in “shrunken log2 fold change” value: -0.332 for the first, -0.119 for the second.

Compared with RRIRNRPPRLPRPRPRPCWSPRP, RRIRRRPPRLPRPRPRPIIMPRP is lower in “shrunken log2 fold change” value: 0.0596 for the first, -0.444 for the second.

First: RRIRRRPPRLPRPRPRPEFCPRP
Second: RRIRVRPPRLPRPRPRPDPSPRP
The “shrunken log2 fold change” value of the first is higher: 0.579 for the first, 0.226 for the second.

First: RRIRQRPPRLPRPRPRPFLPPRP
Second: RRIRARPPRLPRPRPRPDPCPRP
The “shrunken log2 fold change” value of the first is lower: -0.0691 for the first, 0.428 for the second.

Compared with RRIRCRPPRLPRPRPRPRPWPRP, RRIRTRPPRLPRPRPRPFQQPRP is lower in “shrunken log2 fold change” value: 0.432 for the first, 0.0654 for the second.

First: RRIRPRPPRLPRPRPRPEHFPRP
Second: RRIRWRPPRLPRPRPRPFICPRP
The “shrunken log2 fold change” value of the first is higher: 0.134 for the first, -0.309 for the second.

First: RRIRSRPPRLPRPRPRPDRDPRP
Second: RRIRCRPPRLPRPRPRPPQGPRP
The “shrunken log2 fold change” value of the first is lower: -0.0344 for the first, 0.29 for the second.

Going from RRIRYRPPRLPRPRPRPSAFPRP to RRIRARPPRLPRPRPRPTREPRP, the “shrunken log2 fold change” value rises from -0.607 to 0.573.

RRIRNRPPRLPRPRPRPLQVPRP and RRIRVRPPRLPRPRPRPMCFPRP are within 0.2 log units of each other in “shrunken log2 fold change” value: -0.136 for the first, -0.178 for the second.

RRIRQRPPRLPRPRPRPLNSPRP and RRIRIRPPRLPRPRPRPNFAPRP are within 0.2 log units of each other in “shrunken log2 fold change” value: -0.0233 for the first, 0.0322 for the second.

RRIRKRPPRLPRPRPRPSLIPRP and RRIRCRPPRLPRPRPRPVFAPRP are within 0.2 log units of each other in “shrunken log2 fold change” value: -0.0338 for the first, -0.224 for the second.

RRIRRRPPRLPRPRPRPFIIPRP and RRIRKRPPRLPRPRPRPAIRPRP are within 0.2 log units of each other in “shrunken log2 fold change” value: -0.323 for the first, -0.29 for the second.

RRIRDRPPRLPRPRPRPKIMPRP and RRIRLRPPRLPRPRPRPAHNPRP are within 0.2 log units of each other in “shrunken log2 fold change” value: 0.199 for the first, 0.255 for the second.

RRIRERPPRLPRPRPRPSIFPRP and RRIRVRPPRLPRPRPRPCTSPRP are within 0.2 log units of each other in “shrunken log2 fold change” value: -0.343 for the first, -0.145 for the second.

First: RRIRVRPPRLPRPRPRPVAPPRP
Second: RRIRFRPPRLPRPRPRPPKKPRP
The “shrunken log2 fold change” value of the first is lower: 0.242 for the first, 0.847 for the second.

First: RRIRIRPPRLPRPRPRPNINPRP
Second: RRIRQRPPRLPRPRPRPQKLPRP
The “shrunken log2 fold change” value of the first is lower: -0.918 for the first, -0.0725 for the second.

Compared with RRIRMRPPRLPRPRPRPGGSPRP, RRIRQRPPRLPRPRPRPMPLPRP is lower in “shrunken log2 fold change” value: 1.07 for the first, -0.00134 for the second.

First: RRIRNRPPRLPRPRPRPSMMPRP
Second: RRIRVRPPRLPRPRPRPTIHPRP
The “shrunken log2 fold change” value of the first is lower: -0.589 for the first, -0.239 for the second.

RRIRMRPPRLPRPRPRPSPFPRP and RRIRARPPRLPRPRPRPFVWPRP are within 0.2 log units of each other in “shrunken log2 fold change” value: 0.124 for the first, 0.204 for the second.

RRIRQRPPRLPRPRPRPIMWPRP and RRIRCRPPRLPRPRPRPECNPRP are within 0.2 log units of each other in “shrunken log2 fold change” value: 0.0394 for the first, -0.0881 for the second.

Compared with RRIRCRPPRLPRPRPRPHCPPRP, RRIRWRPPRLPRPRPRPTSEPRP is higher in “shrunken log2 fold change” value: -0.508 for the first, 0.116 for the second.

RRIRERPPRLPRPRPRPLWFPRP and RRIRYRPPRLPRPRPRPNWCPRP are within 0.2 log units of each other in “shrunken log2 fold change” value: 0.174 for the first, 0.01 for the second.

First: RRIRYRPPRLPRPRPRPKGEPRP
Second: RRIRKRPPRLPRPRPRPQSPPRP
The “shrunken log2 fold change” value of the first is lower: -0.212 for the first, 0.18 for the second.

First: RRIRHRPPRLPRPRPRPLSPPRP
Second: RRIRERPPRLPRPRPRPTIGPRP
The “shrunken log2 fold change” value of the first is higher: -0.0711 for the first, -0.323 for the second.

Compared with RRIRSRPPRLPRPRPRPMCPPRP, RRIRKRPPRLPRPRPRPGLVPRP is higher in “shrunken log2 fold change” value: -0.0743 for the first, 0.783 for the second.

RRIRMRPPRLPRPRPRPWPSPRP and RRIRARPPRLPRPRPRPFFKPRP are within 0.2 log units of each other in “shrunken log2 fold change” value: 0.034 for the first, -0.0427 for the second.

In the case of RRIRWRPPRLPRPRPRPYWIPRP, the “shrunken log2 fold change” value is reported as -0.81.
